Target: C-terminal vinculin homology domain of α-catenin (α-catenin635–906) (UniProt P35221)
Assay: fluorescence polarisation; fluorescence anisotropy of FITC-labelled EspB fragments (fluorescein at the N-terminus) and of EspB with α-catenin635–906; KD by nonlinear curve fitting; buffer and temperature not stated

Sequence of UniProt P35221 (P35221 635-906): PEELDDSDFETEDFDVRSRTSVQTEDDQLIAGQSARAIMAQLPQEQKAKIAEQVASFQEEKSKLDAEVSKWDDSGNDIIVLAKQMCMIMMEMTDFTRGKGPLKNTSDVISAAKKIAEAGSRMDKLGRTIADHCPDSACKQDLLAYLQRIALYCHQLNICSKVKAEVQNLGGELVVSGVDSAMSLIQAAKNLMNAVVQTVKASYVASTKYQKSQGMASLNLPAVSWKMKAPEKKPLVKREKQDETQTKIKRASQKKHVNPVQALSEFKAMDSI

Going from EspB41–60 (peptide) to EspB41–70 (peptide), the Kd falls from 23 µM to 2.5 µM (9.2-fold).

Going from EspB51–70 (peptide) to “EspB from enterohaemorrhagic E. coli (EHEC) (natural protein)”, the Kd falls from 12 µM to 2.9 µM (4.1-fold).

From article PMC3743801
